For experiment [1], the target named is T1, wild-type mouse PD-L1 mCherry (full-length mouse PD-L1 with C-terminal mCherry, on HEK 293 cells) (mouse, UniProt Q9EP73 19-290). Description: FACS titration; avid.
Experiment [2] has as its target PD-L1 mutant D122A (mouse PD-L1-mCherry fusion) (mouse, UniProt Q9EP73 19-290). The experiment can be described thus: FACS titration; avid.
Experiment [3] has as its target PD-L1 mutant Y123R (mouse PD-L1-mCherry fusion) (mouse, UniProt Q9EP73 19-290). The experiment can be described thus: FACS titration; avid.
The target of experiment [4] is PD-L1 mutant K124A (mouse PD-L1-mCherry fusion) (mouse, UniProt Q9EP73 19-290). The experiment can be described thus: FACS titration; avid.
PD-L1 mutant K124A (mouse PD-L1-mCherry fusion), sequence (Q9EP73 19-290 K124A): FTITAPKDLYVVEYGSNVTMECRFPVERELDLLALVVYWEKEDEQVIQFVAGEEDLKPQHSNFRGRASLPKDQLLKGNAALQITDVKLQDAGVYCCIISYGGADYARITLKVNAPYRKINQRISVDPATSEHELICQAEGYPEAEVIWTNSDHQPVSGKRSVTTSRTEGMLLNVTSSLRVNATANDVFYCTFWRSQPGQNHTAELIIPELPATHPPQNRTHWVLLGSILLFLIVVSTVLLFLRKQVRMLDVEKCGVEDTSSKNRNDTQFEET
Experiment [5] addresses PD-L1 mutant R125A (mouse PD-L1-mCherry fusion) (mouse, UniProt Q9EP73 19-290). Description: FACS titration; avid.
Experiment [6] concerns the target D28R. The experiment can be described thus: FACS titration; avid.
The target of experiment [7] is T1, wild-type mouse PD-L1 mCherry …. Description: FACS.
The target in experiment [8] is PD-L1 mutant Y56A (mouse PD-L1-mCherry fusion) (mouse, UniProt Q9EP73 19-290). The experiment can be described thus: FACS.
PD-L1 mutant Y56A (mouse PD-L1-mCherry fusion), sequence (Q9EP73 19-290 Y56A): as the sequence (Q9EP73 19-290 K124A) above, with Y38A, A106K counted along it
Experiment [9] deals with PD-L1 mutant G120D (mouse PD-L1-mCherry fusion) (mouse, UniProt Q9EP73 19-290). Description: FACS titration; avid.
PD-L1 mutant G120D (mouse PD-L1-mCherry fusion), sequence (Q9EP73 19-290 G120D): as the sequence (Q9EP73 19-290 K124A) above, with G102D, A106K counted along it
In experiment [10] the target is PD-L1 mutant D49R (mouse PD-L1-mCherry fusion) (mouse, UniProt Q9EP73 19-290). Description: FACS titration; avid.
PD-L1 mutant D49R (mouse PD-L1-mCherry fusion), sequence (Q9EP73 19-290 D49R): as the sequence (Q9EP73 19-290 K124A) above, with D31R, A106K counted along it
Experiment [11] deals with PD-L1 mutant G119D (mouse PD-L1-mCherry fusion) (mouse, UniProt Q9EP73 19-290). Description: FACS titration; avid.
PD-L1 mutant G119D (mouse PD-L1-mCherry fusion), sequence (Q9EP73 19-290 G119D): as the sequence (Q9EP73 19-290 K124A) above, with G101D, A106K counted along it

PD-L1 mutant R125A (mouse PD-L1-mCherry fusion), sequence (Q9EP73 19-290 R125A): as the sequence (Q9EP73 19-290 K124A) above, with A106K, R107A counted along it
T1 sequence (Q9EP73 19-290): as the sequence (Q9EP73 19-290 K124A) above, with A106K counted along it
PD-L1 mutant Y123R (mouse PD-L1-mCherry fusion), sequence (Q9EP73 19-290 Y123R): as the sequence (Q9EP73 19-290 K124A) above, with Y105R, A106K counted along it
PD-L1 mutant D122A (mouse PD-L1-mCherry fusion), sequence (Q9EP73 19-290 D122A): as the sequence (Q9EP73 19-290 K124A) above, with D104A, A106K counted along it

B1: wild-type mB7-1 Fc (residues D37-K245, mIgG2a-10×His) (Fc fusion)
chain: DVDEQLSKSVKDKVLLPCRYNSPHEDESEDRIYWQKHDKVVLSVIAGKLKVWPEYKNRTLYDNTTYSLIILGLVLSDRGTYSCVVQKKERGTYEVKHLALVKLSIKADFSTPNITESGNPSADTKRITCFASGGFPKPRFSWLENGRELPGINTTISQDPESELYTISSQLDFNTTRNHTIKCLIKYGDAHVSEDFTWEKPPEDPPDSK
modifications: C-terminal mIgG2a Fc-10×His (dimerising carrier), not in the letters
As a reminder, the EC50 is the concentration giving half of the maximal effect. Take B1: the EC50 is 39.2 nM in experiment [1]; 68.2 nM in experiment [2]; 7.7 nM in experiment [3]; 54.9 nM in experiment [4]; 20.2 nM in experiment [5].

B2: B7-1 (Fc fusion)
chain: DVDEQLSKSVKDKVLLPCRYNSPHEDESEDRIYWQKHDKVVLSVIAGKLKVWPEYKNRTLYDNTTYSLIILGLVLSDRGTYSCVVQKKERGTYEVKHLALVKLSIKADFSTPNITESGNPSADTKRITCFASGGFPKPRFSWLENGRELPGINTTISQDPESELYTISSQLDFNTTRNHTIKCLIKYGDAHVSEDFTWEKPPEDPPDSK
modifications: C-terminal mIgG2a Fc-10×His (dimerising carrier), not in the letters
B2 registered an EC50 in experiment [6] of 18.8 nM.

B3: wild-type mPD-1 Fc (residues L25-Q167, mIgG2a-10×His) (Fc fusion)
chain (part 1 of 2): LEVPNGPWRSLTFYPAWLTVSEGANATFTCSLSNWSEDLMLNWNRLSPSNQTEKQAAFCNGLSQPVQDARFQIIQLPNRHDFHMNILDTRRNDSGIYLCGAISLHPKAKIEESPGAELVVTERILETSTRYPSPSPKPEGRFQ
chain (part 2 of 2): HHHHHHHHHH
Take B3: the EC50 in experiment [7] came to 1.8 nM; in experiment [8], 1.9 nM; in experiment [9] it was 2.8 nM; in experiment [10], 1.8 nM; in experiment [11] it was 2 nM; in experiment [4], 42.9 nM. The same molecule returned an EC50 in experiment [5] of 38.8 nM.

B4: PD-1 (Fc fusion)
chain (part 1 of 2): LEVPNGPWRSLTFYPAWLTVSEGANATFTCSLSNWSEDLMLNWNRLSPSNQTEKQAAFCNGLSQPVQDARFQIIQLPNRHDFHMNILDTRRNDSGIYLCGAISLHPKAKIEESPGAELVVTERILETSTRYPSPSPKPEGRFQ
chain (part 2 of 2): HHHHHHHHHH
For B4, the EC50 in experiment [6] amounted to 2.6 nM.

For the origin of these results see patent publication US20190153065A1 (published 2019).
